Source: US20160108110A1 (Novartis, published 2016)
Blank lines part the entries; values can stand above or below the binder they belong to.

Experiments:
[1] = target: T1, Human ANGPTL4(26-406)-FLAG-His6-Avi (human, UniProt Q9BY76 24-406, biotin on the C-terminal Avi tag in the biotinylated preparations (immobilised form in SET, ELISA and Octet)); experiment: cell-based or functional assay
T1 sequence: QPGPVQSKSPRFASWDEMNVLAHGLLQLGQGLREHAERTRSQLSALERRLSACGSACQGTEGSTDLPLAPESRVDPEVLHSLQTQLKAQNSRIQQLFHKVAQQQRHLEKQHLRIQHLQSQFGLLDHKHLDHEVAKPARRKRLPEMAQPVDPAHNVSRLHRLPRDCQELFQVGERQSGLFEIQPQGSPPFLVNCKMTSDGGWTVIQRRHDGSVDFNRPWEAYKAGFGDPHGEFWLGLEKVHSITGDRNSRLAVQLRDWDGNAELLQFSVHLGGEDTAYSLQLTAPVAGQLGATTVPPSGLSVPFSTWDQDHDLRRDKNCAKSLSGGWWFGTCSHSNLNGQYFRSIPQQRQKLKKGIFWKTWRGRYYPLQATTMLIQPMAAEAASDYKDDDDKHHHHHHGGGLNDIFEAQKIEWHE

[2] = target: T2, ANGPTL4-derived peptide P3 (human); experiment: peptide array, immobilised linear 15-mers
T2 peptide: SPRFASWDEMNVLAH
Method: (§1) The ability of selected antibodies of invention, namely MOR022765 and MOR022770, to bind to linear 15-amino-acid peptides derived from the N-terminal coiled coil domain of human ANGPTL4 was tested. The peptides were immobilized on a glass surface, and the ability of MOR022765 and MOR022770 to bind to the immobilized peptides was evaluated using experimental methods optimized for linear peptide epitope mapping at JPT Peptide Technologies (Berlin, Germany).

[3] = target: T3, ANGPTL4-derived peptide P4 (human); experiment: peptide array, immobilised linear 15-mers
T3 peptide: FASWDEMNVLAHGLL
Method: as §1

[4] = target: T4, ANGPTL4-derived peptide P6 (human); experiment: peptide array, immobilised linear 15-mers
T4 peptide: MNVLAHGLLQLGQGL
Method: as §1

[5] = target: T5, ANGPTL4-derived peptide P9 (human); experiment: peptide array, immobilised linear 15-mers
T5 peptide: QLGQGLREHAERTRS
Method: as §1

[6] = target: T6, ANGPTL4-derived peptide P12 (human); experiment: peptide array, immobilised linear 15-mers
T6 peptide: AERTRSQLSALERRL
Method: as §1

[7] = target: T7, ANGPTL4-derived peptide P14 (human); experiment: peptide array, immobilised linear 15-mers
T7 construct: printed with S where human ANGPTL4 has C
T7 peptide: QLSALERRLSASGSA
Method: as §1

[8] = target: T8, ANGPTL4-derived peptide P15 (human); experiment: peptide array, immobilised linear 15-mers
T8 construct: printed with S where human ANGPTL4 has C
T8 peptide: ALERRLSASGSASQG
Method: as §1

[9] = target: T9, ANGPTL4-derived peptide P17 (human); experiment: peptide array, immobilised linear 15-mers
T9 construct: printed with S where human ANGPTL4 has C
T9 peptide: SASGSASQGTEGSTD
Method: as §1

[10] = target: T10, ANGPTL4-derived peptide P18 (human); experiment: peptide array, immobilised linear 15-mers
T10 construct: printed with S where human ANGPTL4 has C
T10 peptide: GSASQGTEGSTDLPL
Method: as §1

[11] = target: T11, ANGPTL4-derived peptide P20 (human); experiment: peptide array, immobilised linear 15-mers
T11 peptide: TEGSTDLPLAPESRV
Method: as §1

[12] = target: T12, ANGPTL4-derived peptide P22 (human); experiment: peptide array, immobilised linear 15-mers
T12 peptide: LPLAPESRVDPEVLH
Method: as §1

[13] = target: T13, ANGPTL4-derived peptide P23 (human); experiment: peptide array, immobilised linear 15-mers
T13 peptide: APESRVDPEVLHSLQ
Method: as §1

[14] = target: T14, ANGPTL4-derived peptide P24 (human); experiment: peptide array, immobilised linear 15-mers
T14 peptide: SRVDPEVLHSLQTQL
Method: as §1

[15] = target: T15, ANGPTL4-derived peptide P25 (human); experiment: peptide array, immobilised linear 15-mers
T15 peptide: DPEVLHSLQTQLKAQ
Method: as §1

[16] = target: T16, ANGPTL4-derived peptide P27 (human); experiment: peptide array, immobilised linear 15-mers
T16 peptide: SLQTQLKAQNSRIQQ
Method: as §1

[17] = target: T17, ANGPTL4-derived peptide P29 (human); experiment: peptide array, immobilised linear 15-mers
T17 peptide: KAQNSRIQQLFHKVA
Method: as §1

[18] = target: T18, ANGPTL4-derived peptide P30 (human); experiment: peptide array, immobilised linear 15-mers
T18 peptide: NSRIQQLFHKVAQQQ
Method: as §1

[19] = target: T19, ANGPTL4-derived peptide P31 (human); experiment: peptide array, immobilised linear 15-mers
T19 peptide: IQQLFHKVAQQQRHL
Method: as §1

[20] = target: T20, ANGPTL4-derived peptide P33 (human); experiment: peptide array, immobilised linear 15-mers
T20 peptide: KVAQQQRHLEKQHLR
Method: as §1

[21] = target: T21, ANGPTL4-derived peptide P34 (human); experiment: peptide array, immobilised linear 15-mers
T21 peptide: QQQRHLEKQHLRIQH
Method: as §1

[22] = target: T22, ANGPTL4-derived peptide P35 (human); experiment: peptide array, immobilised linear 15-mers
T22 peptide: RHLEKQHLRIQHLQS
Method: as §1

[23] = target: T23, ANGPTL4-derived peptide P37 (human); experiment: peptide array, immobilised linear 15-mers
T23 peptide: HLRIQHLQSQFGLLD
Method: as §1

[24] = target: T24, ANGPTL4-derived peptide P40 (human); experiment: peptide array, immobilised linear 15-mers
T24 peptide: QFGLLDHKHLDHEVA
Method: as §1

[25] = target: T25, ANGPTL4-derived peptide P43 (human); experiment: peptide array, immobilised linear 15-mers
T25 peptide: KHLDHEVAKPARRKR
Method: as §1

[26] = target: T1, Human ANGPTL4(26-406)-FLAG-His6-Avi; experiment: cell-based or functional assay; remark: listed apart in the source

- Reversal of human ANGPTL4 inhibition of human LPL EC50 [1]: 3 nM
- binding result [2]: no binding
- binding result [3]: no binding
- binding result [4]: no binding
- binding result [5]: no binding
- binding result [6]: no binding
- binding result [7]: no binding
- binding result [8]: no binding
- binding result [9]: no binding
- binding result [10]: no binding
- binding result [11]: no binding
- binding result [12]: no binding
- binding result [13]: no binding
- binding result [14]: no binding
- binding result [15]: no binding
- binding result [16]: no binding
- binding result [17]: no binding
- binding result [18]: no binding
- binding result [19]: no binding
- binding result [20]: no binding
- binding result [21]: no binding
- binding result [22]: no binding
- binding result [23]: no binding
- binding result [24]: no binding
- binding result [25]: no binding
B1: MOR022765 (antibody, human IgG1, lambda, V domains shown)
VH: EVQLVQSGAEVKKPGESLKISCKGSGYSFSTYWISWVRQMPGKGLEWMGIIDPSSSDTRYSPSFQGQVTISADKSISTAYLQWSSLKASDTAMYYCARVYGYVYMDVWGQGTLVTVSS
VL: SYELTQPLSVSVALGQTARITCSGDNLGKKYAYWYQQKPGQAPVLVIYDKTKRPSGIPERFSGSNSGNTATLTISRAQAGDEADYYCASYDWYSSSYVFGGGTKLTVLG
notes: human IgG1

- EC50 (read off the curve) [1(A] [26]: 1 to 2 nM
B2: MOR021792 (antibody, human IgG1, lambda, V domains shown)
VH: QVQLLESGGGLVQPGGSLRLSCAASGFTFSDYAMDWVRQAPGKGLEWVSKISYDGSYTYYADSVKGRFTISRDNSKNTLYLQMNSLRAEDTAVYYCARPSMSYYIIPAGFDVWGQGTLVTVSS
VL: DIELTQPPSVSVSPGQTASITCSGDALGVKRASWYQQKPGQAPVLVIYKDNNRPSGIPERFSGSNSGNTATLTISGTQAEDEADYYCSVRTWSMNLYVFGGGTKLTVLG
